Results on nine molecules are retold here after patent US9750814B2, “Polypeptides to inhibit epstein barr viral protein BHRF1 and B cell lymphoma family proteins” (priority 2014, dated 2017).

Data set [1] is classed as physicochemical. The conditions noted are these: for unfolding behaviour in guanidinium hydrochloride: loss of CD signal at 222 nm. The procedure:
CD spectra were recorded with a Model 420 spectrometer (AVIV Biomedical) or a J-1500 Circular Dichroism Spectrometer (JASCO). Unless stated otherwise, proteins were at 20 μM in PBS and data were collected at 25° C.

Data set [2] deals with BHRF1 (Epstein-Barr virus, UniProt P03182). The procedure:
Proteins (20 nmol each) were injected in a 200 μl loop in line with a Superdex-75 10/300 column (GE Healthcare) and separated with running buffer (20 mM Tris-Cl pH 7.5, 150 mM NaCl, 1 mM DTT) at room temperature.

Data set [3] addresses T1, Mcl-1 (Homo sapiens, UniProt Q07820).
T1 construct: Mcl-1 a.a; made in house; host or cells: E. coli BL21* (DE3)
As to the kind of experiment: Bio-layer interferometry (BLI), immobilized Mcl-1. It is filed as binding. The conditions noted are these: BLI; for Kd: lower bound in μM. An excerpt:
(§1) 11-175 (NP_065129.1), Mcl-1 a.a. […] For later BLI analysis, Bcl-B and Bfl-1 were genetically fused to C-terminal maltose-binding-protein with an avi-6his tag for improved solution properties. Codon usage was optimized for E. coli expression. […] The genes for individually-tested designed proteins were assembled from oligos (Hoover and Lubkowski, 2002) and cloned into pET29b (NdeI-XhoI sites) with C-terminal 6his tags for purification from E. coli, or cloned into PETCON (NdeI-XhoI sites; (Fleishman et al., 2011)) for yeast surface expression. Alternative tags were added using PCR methods. Point mutations were made by overlapping PCR (Procko et al., 2013). Error-prone PCR with an average error rate of 1.3 amino acid substitutions per clone used GeneMorph II Random Mutagenesis (Agilent Technologies).
(§2) Purified avi-6his-tagged ligands (20 μM) in reaction buffer (250 mM potassium glutamate, 20 mM Tris-Cl [pH 7.5], 50 mM bicine [pH 8.3], 10 mM ATP, 10 mM MgOAc, 100 μM d-biotin) were enzymatically biotinylated with 150 U/μl BirA (Avidity) at room temperature overnight, followed by purification with NiNTA-agarose and SEC. Biotinylated ligands were stored at 4° C. in 150 mM NaCl, 20 mM Tris-Cl (pH 7.5), 1 mM DTT, 0.02% sodium azide.
(§3) Data were collected on an Octet RED96 (Forte Bio) and processed using the instrument's integrated software. […] Biosensors were dipped in solutions containing the analyte of interest to measure association, and transferred back to empty binding buffer for monitoring dissociation. Kinetic constants were determined from the mathematical fit of a 1:1 binding model.

The test system of data set [4] is mitochondria isolated from Ramos-AW (EBV-positive) and Ramos (EBV-negative) cells. As to the kind of experiment: Cytochrome c release from isolated mitochondria, Ramos-AW versus Ramos. The class given is cell-based, human. Particulars: 30 min. The procedure:
(§4) Cells (˜10^9) were equilibrated in 5 ml of homogenization buffer (0.25 M sucrose, 1 mM EGTA, 10 mM HEPES/NaOH, 0.5% BSA, pH 7.4, Roche Complete protease inhibitors) for 5 min. Samples were kept on ice or at 4° C. until assayed. Cells were homogenized under N2 pressure (400 psi) in a steel disruption vessel (Parr Instrument Company) for 10 min, then centrifuged (750 g) for 10 min to remove intact cells. Supernatant was centrifuged again (12,000 g) for 12 min to collect mitochondria. The pellet was resuspended in 300 μl wash buffer (0.25 M sucrose, 1 mM EDTA, 10 mM Tris/HCl pH 7.4). Proteins at the indicated concentrations were incubated with mitochondria (25 μg mitochondrial protein based on BCA assay, Sigma) in 50 μl final volume of experimental buffer (125 mM KCl, 10 mM Tris-MOPS pH 7.4, 5 mM glutamate, 2.5 mM malate, 1 mM K-PO4, 10 μM EGTA-Tris pH 7.4) for 30 min at room temperature. Reaction solutions were centrifuged (18,000 g) for 10 min at 4° C. and cytochrome c release was quantified using a Cytochrome c ELISA kit (Life Technologies). Complete cytochrome c release was quantified by treatment with 0.5% Triton-X100.
(§5) Ramos, Ramos-AW, Daudi, Raji, DOHH2, JVM-2, and JVM-13 were grown in RPMI 1640 containing L-glutamine and 25 mM HEPES supplemented with 1% penicillin-streptomycin (GIBCO) and 10% fetal bovine serum (FBS, Invitrogen). […]

Data set [5] deals with mitochondria from six EBV-positive and four EBV-negative cancer lines. Nature of the data set: Cytochrome c release from isolated mitochondria, panel of cancer lines. It is filed as cell-based, human. Particulars: 10 μM. The procedure: as §4, §5
Data set [6] has as its target T2, Bcl-B (Homo sapiens, UniProt Q9HD36).
T2 construct: Bcl-B a.a; 11-175 (NP_065129.1); made in house; host or cells: E. coli BL21* (DE3)
T2 sequence (Q9HD36 11-175): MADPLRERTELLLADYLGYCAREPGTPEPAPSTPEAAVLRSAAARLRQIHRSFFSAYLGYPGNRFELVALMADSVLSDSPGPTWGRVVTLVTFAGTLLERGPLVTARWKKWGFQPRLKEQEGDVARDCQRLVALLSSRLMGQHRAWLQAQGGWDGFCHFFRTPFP
Nature of the data set: Bio-layer interferometry (BLI), immobilized Bcl-B. Particulars: lower bound in μM. The class given is binding.
Source text: as §1, §2, §3

Data set [7] deals with T3, Bfl-1 (Homo sapiens, UniProt Q16548, C4S).
T3 sequence (Q16548 1-153 C4S): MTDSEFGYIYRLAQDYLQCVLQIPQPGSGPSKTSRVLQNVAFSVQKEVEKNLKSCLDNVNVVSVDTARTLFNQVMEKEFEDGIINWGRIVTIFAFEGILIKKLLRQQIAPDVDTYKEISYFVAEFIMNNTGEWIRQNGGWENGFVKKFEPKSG
Nature of the data set: Bio-layer interferometry (BLI), immobilized Bfl-1. The class given is binding. Also noted: Bfl-1 a.a; made in house; host or cells: E. coli BL21* (DE3). The conditions noted are these: lower bound in μM.
Source text: as §1, §2, §3

Data set [8] deals with T4, Bcl-2 (Homo sapiens, UniProt P10415).
T4 construct: human Bcl-2 a.a; made in house; host or cells: E. coli BL21* (DE3)
T4 sequence (P10415 1-207): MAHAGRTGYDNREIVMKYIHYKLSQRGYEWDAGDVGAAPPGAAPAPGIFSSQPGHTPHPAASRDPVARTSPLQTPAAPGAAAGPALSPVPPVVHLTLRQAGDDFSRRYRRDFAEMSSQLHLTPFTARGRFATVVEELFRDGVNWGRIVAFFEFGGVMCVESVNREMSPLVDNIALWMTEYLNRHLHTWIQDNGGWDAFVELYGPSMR
Nature of the data set: Bio-layer interferometry (BLI), immobilized Bcl-2. It is filed as binding.
Source text: as §1
Purified avi-6his-tagged ligands (20 μM) in reaction buffer (250 mM potassium glutamate, 20 mM Tris-Cl [pH 7.5], 50 mM bicine [pH 8.3], 10 mM ATP, 10 mM MgOAc, 100 μM d-biotin) were enzymatically biotinylated with 150 U/μl BirA (Avidity) at room temperature overnight, followed by purification with NiNTA-agarose and SEC. […]
Data were collected on an Octet RED96 (Forte Bio) and processed using the instrument's integrated software. […] Kinetic constants were determined from the mathematical fit of a 1:1 binding model.

In data set [9] the test system is Bfl-1-dependent MEF line. As to the kind of experiment: Long-term survival (colony) assay, Bfl-1-dependent MEFs. It is filed as cell-based, mouse. Particulars: seven day colony survival, doxycycline-induced expression. An excerpt: Mouse embryonic fibroblasts were generated from E13-E14.5 embryos derived from CreERT2/Bcl-x^fl/fl/Mcl-I^fl/fl C57BL/6 mice (Kelly et al., 2014) and immortalized (at passage 2-4) with SV40 large T antigen. Retroviral expression constructs in the pMIG vector (Murine Stem Cell Virus-IRES-GFP) expressing each FLAG-tagged pro-survival protein were transiently transfected using LIPOFECTAMINE™ (Invitrogen), into Phoenix ecotropic packaging cells. Filtered virus-containing supernatants were used to infect the MEFs by spin inoculation as previously described (Lee et al., 2008). Cells stably expressing each pro-survival protein were selected by sorting GFP^+ve cells 24 hours after spin inoculation and protein expression verified by Western blotting using an anti-FLAG antibody. Following verification of exogenous pro-survival protein expression, each cell line was treated with 1 μM Tamoxifen (Sigma-Aldrich) to enable deletion of endogenous Mcl-1 and Bcl-xL. Deletion of endogenous Mcl-1 and Bcl-xL was shown by Western blotting using anti-Mcl-1 (Rockland Clone, 600-401-394) and anti-Bcl-xL (BD Transduction Laboratories Clone 44/Bcl-x) antibodies. Cells were maintained in DME Kelso medium supplemented with 10% (v/v) fetal bovine serum, 250 mM L-asparagine and […] 2-mercaptoethanol.
Inducible αMCL1 and αBFL1 constructs were generated in a lentiviral vector described in Aubrey et al. (2015). […]

Data set [10] relates to colon cancer cell lines. As to the kind of experiment: Long-term survival assay, colon cancer cell lines. The class given is cell-based, human. The conditions noted are these: long-term survival assay. As to the method:
Inducible αMCL1 and αBFL1 constructs were generated in a lentiviral vector described in Aubrey et al. (2015). Ligand expression is linked via the T2A peptide to mCherry™ fluorescent reporter protein. […] Viral supernatants were then filtered prior to target cell transduction. […] For infection of MEFs and colon cancer cell lines, equal volume of virus-containing supernatant was added to target cells pre-incubated with 10 ng/μL polybrene, and centrifuged at 2500 rpm for 2 hours at 32° C. Following spin inoculation, cells were then incubated overnight at 37° C. Cells expressing the doxycycline-inducible constructs were then selected by sorting mCherry^+ve cells. MEFs were maintained in DME Kelso medium supplemented with 10% (v/v) FBS, 250 mM L-asparagine and […] 2-mercaptoethanol. Colon cancer cell lines were maintained in DMEM/F-12 supplemented with 10% (v/v) FBS.
MEF and colon cancers were seeded in 6-well tissue culture plates in 2 mL culture media at 150 cells per mL. The next day and every 48 hours following, doxycycline was added at a final concentration of 1 μg/mL to each well, while nothing was added to control wells.

Substitutions are numbered along the chain they refer to. Numbers in names are those of the source.

T1 sequence (Q07820 172-327): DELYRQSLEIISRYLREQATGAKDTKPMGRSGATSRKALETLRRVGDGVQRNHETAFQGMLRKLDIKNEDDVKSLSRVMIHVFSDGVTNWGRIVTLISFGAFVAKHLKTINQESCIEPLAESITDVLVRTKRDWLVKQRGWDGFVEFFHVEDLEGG
BHRF1, sequence (P03182 1-161): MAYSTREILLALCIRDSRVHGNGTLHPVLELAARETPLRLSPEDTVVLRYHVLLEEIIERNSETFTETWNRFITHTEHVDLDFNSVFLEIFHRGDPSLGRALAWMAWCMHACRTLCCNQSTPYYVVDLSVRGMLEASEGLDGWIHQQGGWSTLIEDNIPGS

B1: M-CDP02: SEQ ID NO: 29; target Mcl-1 (protein)
chain: ADPKKVLDKAKDQAENRVRELKQELEELYKEARKLDLTQEERRKLEESYIAAMLRAIGDIFNAIMQAKNEADKLKKAGLVNSQQLDELRRRLEELRKEASLKAEDYGREFQEKLEY
As to B1, in data set [1], the “unfolding behaviour in guanidinium hydrochloride” value is recorded as “unfolded over broad denaturant concentration ranges”.

B2: BbpD04.2: BbpD04.1 with four mutations: I21L, Q79L, I84Q and H104R (protein)
chain: ADWKKVLDKAKDIAENRVRELKQKLEEFYKEAMKLDLTQEMRRKLMLRWIAAMLMAIGDIFNAIRQAKQEADKLKKAGLVNSQQLDELKRRLEELKEEASRKCRDYGREFQLKLEY
In the case of B2, the “elution by SEC when mixed with BHRF1” value in [2] (in solution) is reported as “higher molecular weight (MW) complex”. Also, in data set [2] (protein alone), the “state by SEC after purification from E. coli” value is “monodisperse and monomeric”.

B3: BINDI N62S: BINDI variant with N62S (protein)
chain: B2 chain with W3P, I13Q, F28L, M33R, M46E, W49Y, F61Y, N62S, C103A
With B3, the “change of affinity for Mcl-1 relative to BINDI” value in data set [3] is “diminished six-fold”. Also, the “cytochrome c release, Ramos-AW compared with Ramos mitochondria” value in [4] was “enhanced apoptotic activity against EBV-positive Ramos-AW”. In addition, the cytochrome c release result in [5] (Raji and JVM-2) is listed as “low levels of cytochrome c release”; in [5] (Ramos-AW, Daudi, Granta 519, JVM-13) it was “high cytochrome c release”.

B4: M-CDP05: SEQ ID NO: 32; target Mcl-1 (protein)
chain: ADPKKVLDKAKDQAENRVRELKQKLEELYKEARKLDLTQEERHRLETKALSALLAAIGDILDAIMQALQEAAKLKKAGLVNSQQLDELKRRLEELRKEASRKARDYGREFWLKLDY
For the molecule B4, the “unfolding behaviour in guanidinium hydrochloride” value in data set [1] is “unfolded over broad denaturant concentration ranges”.

B5: WINDI: SEQ ID NO: 265; target Bcl-w (protein)
chain: DPKKVFDELKDRAENNVRRLKQKLEELYKEARKKDLTQEEREKLKTKYKTAMQLAALAAEGDIMNALLKARKLHKNGQVNEQQLEELARRLMELAKEAFQKAKDYANEFKYKLEY
As for B5, the Kd in data set [3], in data set [6] and in [7] was > 25 µM each time.

B6: 2-INDI: SEQ ID NO: 3; target Bcl-2 (protein)
chain: ADPKKVLDKAKDEAENRVRELKQRLEELYKEARKLDLTQEMRQELVDKARAASLQANGDIFYAILRALAEAEKLKKAGLVNSQQLDELKRRLEELAEEARRKAEKLRDEFRLKLEY
With B6, the “protein stability relative to the original computational design” value in data set [1] was “slightly to moderately decreased”. Also, the Kd in [3], in data set [6] and in data set [7] was > 75 µM each time. Further, in data set [8], the “fold weaker affinity for the next tightest binding BCL2 family protein (target Bcl-2)” value is > 2,000 fold.

B7: FINDI: SEQ ID NO: 6; target Bfl-1 (protein)
chain: ADPKKVLDKAKDQAENRVRELKQKLEELYKEARKLDLTQEKRKKLEVATLGAVLAAHGDILNAIMQAKEEADKLKKAGLVNSQQLDELKRRLEELKEEALRKASDYGNEFHLKRRY
For the molecule B7, in [1], the “protein stability relative to the original computational design” value is on record as “slightly to moderately decreased”. Further, the decrease in survival in [9] turned out to be 85±6%. For the same molecule, the “decrease in RKO cell survival” value in data set [10] was determined as 63±4%.

B8: X-CDP07: SEQ ID NO: 47; target Bcl-xL (protein)
chain: ADPKKVLDKAKDRAENVVRKLKKELEELYKEARKLDLTQEMRDRIRLAAIAARIAAFGDIFHAIMEALEEARKLKKAGLVNSQQLDELKRRLEELDEEAAQRAEKLGKEFELKLEY
B8: in [7], the Kd is > 50 µM.

B9: XINDI: SEQ ID NO: 4; target Bcl-XL (protein)
chain: ADPKKVLDKAKDRAENVVRKLKKELEELYKEARKLDLTQEMRDRIRRTAIAARFQAHGDIFHAIKHAKEEARKLKKAGLVNSQQLDELKRRLRELDEEAEQRAEKLGKEFRLKLEY
As for B9, the “protein stability relative to the original computational design” value in data set [1] is listed as “slightly to moderately decreased”. Besides, the Kd in [3], in [6] and in data set [7] was > 50 µM in each case.
